Consider 20 sequences from a protein production outcome set (Wang et al. 2014).

This series can be described thus: label from the status in PepcDB records.

In the case of “MTKVIAITGKGGTGKTAVAALLIRSLSKKGQFILAVDADADTNLPETLGCENVKTIGDAKEFLQAEITKPRPDNPDMNKESVLQSKVYEIIEEMPGYDLLVMGRPEGSGCYCYVNNLLRGIMDKLVKNYDLVVIDAEAGLEHFSRKIIRDIDDLIVVTDASRRGFRTAERIHELVNELESNIGSIHVIANKVTDANREKLVKLAEELKLNLIGMIPLDPKIEEMDIKGIPLFEIPDDSVAAVEIENIVKKLGF”, the protein production entry is “failed”.

As for “MTKYLKYFIISMFRSRGLIFFGLFLILLSLIPNMLSISDSAHYSLKVLNHASRWYGLAILISFSIVSGTLAQMIYFSSSAIIYLHRHSKLSINRYYFESTLGAMVIFGIYALIILFATIVGYSYVSKNIIFPKKLLMLVLFTMLAGLFYFSLSFSLQAIATLLKKAHLIEYLAYFLISLTFLLGYLQVNTSLDVSLLVFLSPLNSILSLLIYGYSGILSFSVEFLLVTSLFYITVLQLISVWSLKRLKEVRIEDKLI”, the protein production result is given as “failed”. In the case of “MTLATATNEHLANISNTLIYSAMAVYTLAFFAYIAEWLFGSRSKVGRTAAALTHKTAAKAPAVTVKSAGGTAVLDRPQVVTRSAPGARDVPDGPGAHGGDEQGDLYGRIAVSLTVLAFAVEAAGVVARALSVQRAPWGNMYEFNITFSTVAVGVYLALLALKKNIRWLGLPLVTTVLLDLGLAVTVLYTASDQLVPALHSYWLYIHVSTAILCGAVFYVGAVGALLYLFKDSYENKLATGGQPGRFATSVMERLPASASLDKFSYRVNAAVFPLWTFTIIAGAIWAGDAWGRYWGWDPKETWAFITWVAYACYLHARATAGWKGRKAAYIALIAFACWLFNYYGVNIFVSGKHSYAGV”, the protein production entry is given as “failed”. To “MTLIPTDLSASRLSDAVRDPNREIAASSRVIDLSVGIVVCIPCFRRPQHLRLTLESLASQRTPRSFAVVMVENDAARRESAPVAAEYLADGRLQGICLVEQRQGNCQAINAAFETAQALFPAATRFLMIDDDEIASPDWLELMVRTAEATGADVVGGPVLPDFDDDSQPWLSRHPAFRPAYDYSGAVPLIYGCGNCLITRAAFDRLGSPAFDLRFNFLGGGDCDFFVRCRDAGMTFHWTTEAVITETVPQSRTSLGWIAKRGLRIGAINYRVQHKAAQGAAARVRVFAQMLGRLPLSLLRAARLLATSKAVVAMHPVMVALGSLLAALGIEPKPYEASKIVS” belongs “failed”. As for “MTLMCSIAGIYLAKLPYANIIGALVLALLLGILMQLAPEKMRKEASSGMSFISNKFLRLGIILLGFRLDLEKLAAAGVKTILVAALAVAGTITLTYWLSRKFGAEDELAFLSACGCGVCGAAAVMGVSPQITAASEERKRENEVLAVAVVCVMGTVFTLLEIGLKPVLGLTDSQFGIVAGGSLHEIAHAVASGGAFGNISLDSALIMKLSRVILLAPVALIIGYLYQRRTAKVSTIDSTTKTGKLPIPWFLGGFILTSVLGTYLPFSTSLLDALVQVAYIFLGMAMAALGISVNFKVIFKRGGAVFGAAAISSTCLLIFMIIMSKLFF”, the protein production entry is on record as “failed”. Turning to “MTLRAARPEFLDLFPAGAEARRLADGFTWTEGPVYVPARSAVIFSDVRQNRTWAWSDDGQLSPEMHPSHHQNGHCLNKQGHLIACSHGLRRLERQREPGGEWESIADSFEGKKLNSPNDVCLAPDGSLWFSDPTYGIDKPEEGYGGEMELPGRWVFRLAPDGTLSAPIRDRVKPNGLAFLPSGNLLVSDTGDNATHRYCLNARGETEYQGVHFTVEPGKTDGLRVDAGGLIWASAGDGVHVLTPDGDELGRVLTPQTTSNLCFGGPEGRTLYMTVSTEFWSIETNVRG”, the protein production result is reported as “failed”. To “MTLTIPNAPGSSGYLDMFPERRMSYFGNSYILGLTVTAGIGGLLFGYDTGVISGALLYIKDDFEVVKQSSFLQVYNVSSFTSSKLETIVSMALVGAMIGAAAGGWINDYYGRKKATLFADVVFAAGAIVMAAAPDPYVLISGRLLVGLGVGVASVTAPVYIAEASPSEVRGGLVSTNVLMITGGQFLSYLVNSAFTQVPGTWRWMLGVSGVPAVIQFILMLFMPESPRWLFMKNRKAEAIQVLARTYDISRLEDEIDHLSAAEEEEKQRKRTVGYLDVFRSKELRLAFLAGAGLQAFQQFTGINTVMYYSPTIVQMAGFHSNQLALFLSLIVAAMNAAGTVVGIYFIDHCGRKKLALSSLFGVIISLLILSVSFFKQSETSSDGGLYGWLAVLGLALYIVFFAPGMGPVPWTVNSEIYPQQYRGICGGMSATVNWISNLIVAQTFLTIAEAAGTGMTFLILAGIAVLAVIFVIVFVPETQGLTFSEVEQIWKERAYGNISGWGSSSDSNNMEGLLEQGSQS” belongs “not failed”; to “MTLTMGFIGFGKSANRYHLPYLKTRNNIKVKTIFVRQINEELAAPYEERGVYFTTDLDELLNDKEIQVVTICTPAHTHYELAKKVILAGKSVIVEKPFCDTVEHAKELLALGREKGVVVMPYQNRRFDGDFLAVKQVVEQGFLGDIIEIESHIDYFRPGSITHEAPKEEGSFYSLGIHTMDRMISLFGRPNTVTYDIRNNEVEGAVDNYFDVGLHYGNQLKIKLKTNHIVAKDYPRFIVHGTNGSFIKYGEDQQENDLKAGIMPESAGFGEDSPMYYGIAKYRNANGDWIEKQIKTPLGDYGRFYDAAYDTIVNGAPKLVKDEEAVTNIEILENGFAAPSPSVYKLEALHLNELEHHHHHH”, “not failed”; to “MTLVRMTEKLLSPLHTRPWPERWLTRVLGAALASAAYLLCLPWDLNNRAPSPGAVEETTPVTGVGVVALAVILLALAAYFGHRDSLGWPVLLVAVPPAALLYVSLRTHPGPPDGFAGVWPLVWGFFTLLIGVGVLVAAAVAREFRADLVDEELSLAHRR”, “failed”. To “MTLVSVVLPVYQGAPWIRGALDCLAAQTHRPLEILVVDDASSDGTPAVVEDWRARHPDLSVRLIVRPENGGPGVARNDALALARGAYVAFLDADDRCVPWRLARQLARLEAEPGLGSVGAWYDMVDADGTPVAARRLSVTAGEMAWAALIHPPFLLSTLMTRRALCRPGIFAPRHQGEDAPAQRRLLWQAPAAMIEEVLVTYRTDPHRPQDPRMGVAMAEDLAPLTGPLSAAEAWALHDALLAFPNRVTPAAIAAVSGLFTLLGVFRGLRPAWMTRPEYNRLFEGYLDLAAPFLAAHGESLLAPPSPQAPRVAPWMGPWEAEWRAGEARSDRPRPKEIFPPVGGDSPSKLSG” belongs “failed”; to “MTLVVPFDGSELAEAALVRAAEFGTVFEEDVLAVSVIRNGNAKYAREHDWIGPNEDFDLEAVVTSLHEQVIDLCPSSDFRHTVVDRYAPAGAVAKAIRKLAKREDASMVFIGSENAGHLVTSISSVGGSIASDDAYDVVIVRHRNPSKIAKLRNTSPHRQSKSDFYLPE”, “failed”; to “MTLYTNDYLEFYLTLVGWLINNGIWDMISDTGLFALPFLIIVVREWIKVRQEGADEGNKGVLSLARIETQLYIGYVVVSLCAIPVMSVGFDTLQFDQTRAKQCQVLLPAPGDTGWNTTFSSLTGKSARIPIWWAVMHSLSKGLNSGAVAAIPCGTDLRQMRMDVDAIRIDNPLLAQEVADFTHDCFGPSRARLFMRQPDLGAITKDPKTLQDLNWIGSRFLLNTSGYYDTDYSKTPRTAWPYDAKRDDGLPQVTGGGGYPTCKQWWSDGSIGLRDRLQAQVDPTLMNKLLGWAKWLSKDEVTDSMIRQVVSPSSQVNGDVYSDYGGQIGGTMWNGLARAGGTLGVGVGSLAYFPGMDIVRQALPMVMAFLKMAMVICLPLVLIIGAYQLKVAMTMSVVFFALIFVDFWFQLARWVDSTIIDVLYGSGSPHLSFDPVMGLNTTTQDAILNFVMGAMFIILPLFWMSALAWAGVQVSGVLEGLSRGTQSVERAGASGGGIAQQAVGSIGGKS”, “failed”. For “MTMADETIILNVLGQYTRAHDRRDPDAMAALFAPEATIEIVDAVGGASRSISRLEGRDAIRVAVRQMMAPHGYRAWSQNVVNAPIIVIEGDHAVLDAQFMVFSILAAEVPDGGWPTGTFGAQGRIVPIEAGQYRLTLRTVADGWVISAMRIEHRLPMAFG”, the protein production result is recorded as “not failed”. In the case of “MTMDGDSSTTDASQLGISADYIGGSHYVIQPHDDTEDSMNDHEDTNGSKESFREQDIYLPIANVARIMKNAIPQTGKIAKDAKECVQECVSEFISFITSEASERCHQEKRKTINGEDILFAMSTLGFDSYVEPLKLYLQKFREAMKGEKGIGGAVTATDGLSEELTEEAFTNQLPAGLITTDGQQQNVMVYTTSYQQISGVQQIQFS”, the protein production entry was “failed”. To “MTMNPLPLQKEAEKRSPRLNSPFKSLMRIHWWMALAYLIVFCTGTLMVNLERGQFLRSELYDFHKSIGILTMALLTWRIFTLLQVWWRKYTKRPPKLSLAWWRTFTLHLSLYVFMGVIPISGFLLSNSFKANNVRFFSITLPDIFPQNEAMVEIGRNAHFWLAYTFLIFIFIHMLTYWKVIRANWRRWVNFIGKFQQQT” belongs “failed”; to “MTMTLHTKASGMALLHQIQGNELEPLNRPQLKIPLERPLGEVYLDSSKPAVYNYPEGAAYEFNAAAAANAQVYGQTGLPYGPGSEAAAFGSNGLGGFPPLNSVSPSPLMLLHPPPQLSPFLQPHGQQVPYYLENEPSGYTVREAGPPAFYRPNSDNRRQGGRERLASTNDKGSMAMESAKETRYCAVCNDYASGYHYGVWSCEGCKAFFKRSIQGHNDYMCPATNQCTIDKNRRKSCQACRLRKCYEVGMMKGGIRKDRRGGRMLKHKRQRDDGEGRGEVGSAGDMRAANLWPSPLMIKRSKKNSLALSLTADQMVSALLDAEPPILYSEYDPTRPFSEASMMGLLTNLADRELVHMINWAKRVPGFVDLTLHDQVHLLECAWLEILMIGLVWRSMEHPVKLLFAPNLLLDRNQGKCVEGMVEIFDMLLATSSRFRMMNLQGEEFVCLKSIILLNSGVYTFLSSTLKSLEEKDHIHRVLDKITDTLIHLMAKAGLTLQQQHQRLAQLLLILSHIRHMSNKGMEHLYSMKCKNVVPLYDLLLEMLDAHRLHAPTSRGGASVEETDQSHLATAGSTSSHSLQKYYITGEAEGFPATV”, “not failed”. As to “MTNAFSEELALEAAGLDAIFGKDFKAEETTTGHVRWSVPLSHNGVELELAFLLDSAYPLDSEPQVRVTCKEGLSLRAVRELEGHLQKVAAENRGSPSAYLLYTAAQDWIDTHDRREAAEAISATIASTRLSAREPDSAGTGTTFETKAESFTQLVEHETLEHATIDRTLGTPVTPETFAAWKQEFDKYLLENGILDIANNADIELDASQGGWKGNSRRKPTGRELFTMHREMFVDDFEESDQCESTASGACDTQGSELAEHVDASLFLS”, the protein production result is “failed”. Take “MTNDQIKKAKNGTYYFRANLGYDVKGKKIQKYRSGFKTKKEAREEYSRLLLMNPDDLNENKDKMMFEYYINEIFLPWYKTQVKLRTYENRIPTIQKHFPYFYKMAVSDIEPINVQDWQLKMTKNLKPSYVRAVQGLFSVAMDRAIVLGITTTNPSKIIGNVKKVKPKVEFWTKEEFEKVLSLIYKEDYYQNFLFISLWFLFMTGMRIGEATAIQWEDIDFETGVVSITKTLYYKSQIDYKFVEPKTKASVRHIVLDKVTLSYLADWREVQQNVVKTNFVMSYNGIPTQKHTIAHAIDRFSKMAGIHRIKIHALRHSHASLLISMGENPLIIKERLGHEDIETTLGTYGHLYPNSNFEVASKLNGIISFQPAEQNLDSSPKNQFTVNYRQNKQPNSAIKVQ”: the protein production entry is “failed”. In the case of “MTNGKIWLVVKPTVGVPLFLSAAVIASVVIHAAVLTTTTWLPDYYQGSAKVAAE”, the protein production result was “failed”. On to “MTNHQKRLAVPKSWPVERKEEAYTTKAAAGPHGEEGVPLLIVLRDVLGYVDSKKEARYALEQDSILINGTAVSDERRPVGMFDILAFDEREEYYRIFPDEGGRLSLTPIDEDAAGSKLGKIVGKTQVAGGDTQLSLHDGETLLVEDATAYDTNDSIVVSNDGEEIVAHFTYEEGALVTAVSGAHAGRIGTIDEIQVTPGSSANNVLIDAENDDERFETVEEYVVVIDENFTDGGDDE”, for which the protein production result is on record as “failed”.
